Measurements from PMC3068246.

Molecular target: cis GFP: loop:s11 (light-activated truncated GFP with the 11th β-strand removed, chromophore in the cis configuration)
Assay: absorbance spectroscopy

s11, synthetic peptide corresponding to strand 11 of GFP
Kd: < 1 pM
